Laboratory results: PMC3618186
Blank lines part the entries; values can stand above or below the substance they belong to.

Columns and labels:
[1] = target: Cytoplasmic dynein 1 intermediate chain 2, isoform 2C, N-terminal fragment IC1-124 (UniProt Q62871); experiment: sedimentation equilibrium analytical ultracentrifugation (Beckman-Coulter XLI, absorbance optics); conditions: 4 °C
[2] = target: dynactin p150^Glued coiled-coil 1 (CC1) (R. norvegicus) (UniProt P28023); experiment: SEC; equimolar IC-TcTex1-LC8 complex and p150Glued fragment (CC1, CC1A, CC1B), alone or in combination, analytical Superdex 200 10/300 GL; fractions checked by SDS-PAGE
[3] = target: dynactin p150^Glued coiled-coil 1B (CC1B), residues 381–530 (R. norvegicus) (UniProt P28023); experiment: as above
[4] = target: dynactin p150^Glued coiled-coil 1 (CC1) (R. norvegicus) (UniProt P28023); experiment: AUC; sedimentation equilibrium of the p150Glued fragments alone, 4°C, 1x PBS, 1 mM TCEP; monomer-dimer model (dimer to monomers)
[5] = target: p150Glued CC1 (Drosophila melanogaster) (UniProt P13496); experiment: ITC; conditions: cited from earlier work
Chain of p150Glued CC1 (Drosophila melanogaster) (P13496 221-509): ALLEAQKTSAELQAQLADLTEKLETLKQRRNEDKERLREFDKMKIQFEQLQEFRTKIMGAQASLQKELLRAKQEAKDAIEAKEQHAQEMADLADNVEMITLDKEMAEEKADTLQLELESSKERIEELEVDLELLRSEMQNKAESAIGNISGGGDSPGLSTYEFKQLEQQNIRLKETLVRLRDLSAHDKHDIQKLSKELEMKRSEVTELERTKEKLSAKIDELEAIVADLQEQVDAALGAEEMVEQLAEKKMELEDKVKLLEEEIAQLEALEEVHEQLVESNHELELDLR

[6] = target: dynactin p150^Glued coiled-coil 1 (CC1) (R. norvegicus) (UniProt P28023); experiment: AUC; sedimentation equilibrium, CC1 + IC 1-124, 4°C, pH 7.0; model CC1 dimer + 2 IC, constant in M^2
[7] = target: dynactin p150^Glued coiled-coil 1 (CC1) (R. norvegicus) (UniProt P28023); experiment: AUC; sedimentation equilibrium, CC1 + IC 1-124, 4°C, pH 8.0; model CC1 dimer + 2 IC, constant in M^2
[8] = target: dynactin p150^Glued coiled-coil 1 (CC1) (R. norvegicus) (UniProt P28023); experiment: AUC; sedimentation equilibrium, CC1 + IC 1-124, 4°C, pH 9.0; model CC1 dimer + 2 IC, constant in M^2
[9] = target: dynactin p150^Glued coiled-coil 1 (CC1) (R. norvegicus) (UniProt P28023); experiment: AUC; sedimentation equilibrium, stoichiometric CC1 + IC 1-124, 4°C, 100 mM NaCl; model CC1 dimer + 2 IC, constant in M^2
[10] = target: dynactin p150^Glued coiled-coil 1 (CC1) (R. norvegicus) (UniProt P28023); experiment: AUC; sedimentation equilibrium, stoichiometric CC1 + IC 1-124, 4°C, 250 mM NaCl; model CC1 dimer + 2 IC, constant in M^2
[11] = target: dynactin p150^Glued coiled-coil 1 (CC1) (R. norvegicus) (UniProt P28023); experiment: AUC; sedimentation equilibrium, stoichiometric CC1 + IC 1-124, 4°C, 500 mM NaCl; model CC1 dimer + 2 IC, constant in M^2
[12] = target: dynactin p150^Glued coiled-coil 1 (CC1) (R. norvegicus) (UniProt P28023); experiment: AUC; sedimentation equilibrium, stoichiometric CC1 + IC 1-124, 4°C, 1000 mM NaCl; model CC1 dimer + 2 IC, constant in M^2
[13] = target: dynactin p150^Glued coiled-coil 1 (CC1) (R. norvegicus) (UniProt P28023); experiment: AUC; sedimentation equilibrium of admixtures of p150Glued fragment and IC 1-124, 4°C, 1x PBS, 1 mM TCEP; model p150 dimer + 2 IC -> dimer-IC2, constant in M^2; CC1A: 10 μM + 10 μM
[14] = target: dynactin p150^Glued coiled-coil 1A (CC1A), residues 204–348 (R. norvegicus) (UniProt P28023); experiment: as above
[15] = target: dynactin p150^Glued coiled-coil 1B (CC1B), residues 381–530 (R. norvegicus) (UniProt P28023); experiment: as above

Chain of Cytoplasmic dynein 1 intermediate chain 2, isoform 2C, N-terminal fragment IC1-124 (Q62871 whole entry, the tested form may be a part, canonical isoform): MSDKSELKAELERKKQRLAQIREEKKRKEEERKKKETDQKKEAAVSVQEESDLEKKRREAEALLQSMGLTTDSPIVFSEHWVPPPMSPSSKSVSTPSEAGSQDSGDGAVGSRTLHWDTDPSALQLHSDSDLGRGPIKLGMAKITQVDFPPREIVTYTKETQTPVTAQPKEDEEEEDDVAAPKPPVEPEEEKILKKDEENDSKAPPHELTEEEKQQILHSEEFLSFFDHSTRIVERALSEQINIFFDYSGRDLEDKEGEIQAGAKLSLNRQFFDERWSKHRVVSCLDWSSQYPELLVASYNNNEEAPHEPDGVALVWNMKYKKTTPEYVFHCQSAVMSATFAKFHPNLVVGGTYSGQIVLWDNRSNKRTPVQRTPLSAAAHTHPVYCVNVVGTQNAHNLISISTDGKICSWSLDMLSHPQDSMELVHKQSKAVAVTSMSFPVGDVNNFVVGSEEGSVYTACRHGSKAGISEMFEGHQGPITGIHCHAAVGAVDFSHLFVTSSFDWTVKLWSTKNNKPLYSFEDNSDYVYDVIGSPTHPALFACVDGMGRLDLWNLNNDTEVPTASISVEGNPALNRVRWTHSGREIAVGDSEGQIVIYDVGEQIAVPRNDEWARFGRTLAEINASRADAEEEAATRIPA
Chain of dynein intermediate chain (Q24246 whole entry): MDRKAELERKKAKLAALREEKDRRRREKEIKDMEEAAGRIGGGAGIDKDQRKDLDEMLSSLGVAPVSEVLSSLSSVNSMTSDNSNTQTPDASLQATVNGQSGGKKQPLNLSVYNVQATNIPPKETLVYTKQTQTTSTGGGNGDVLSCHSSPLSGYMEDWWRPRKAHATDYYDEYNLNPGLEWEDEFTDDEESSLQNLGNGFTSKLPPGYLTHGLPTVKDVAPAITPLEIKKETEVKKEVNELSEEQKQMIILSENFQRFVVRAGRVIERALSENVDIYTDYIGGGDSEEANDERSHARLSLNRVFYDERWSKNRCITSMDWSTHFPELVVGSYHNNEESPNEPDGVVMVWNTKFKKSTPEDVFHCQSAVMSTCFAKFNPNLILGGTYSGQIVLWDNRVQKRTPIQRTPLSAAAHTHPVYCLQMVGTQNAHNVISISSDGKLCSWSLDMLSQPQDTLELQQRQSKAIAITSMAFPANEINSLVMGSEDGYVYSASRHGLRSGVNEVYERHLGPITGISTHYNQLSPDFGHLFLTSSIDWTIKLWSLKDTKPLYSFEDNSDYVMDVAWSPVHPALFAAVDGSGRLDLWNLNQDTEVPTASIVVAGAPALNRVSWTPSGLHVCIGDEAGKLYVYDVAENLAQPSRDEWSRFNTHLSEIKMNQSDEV

Substance: Dynactin subunit 1 (p150Glued) CC1 fragment
- dissociation constant ([1]; pH 7.0, not stated (pH series 6.0, 7.0, 8.0, 9.0; buffer substances not named)): ≤10^−13 M^2
- dissociation constant ([1]; pH 7.4, 1x PBS: 137 mM NaCl, 2.7 mM KCl, 1x PBS (4.3 mM Na2HPO4, 1.47 mM KH2PO4, pH 7.4)): <10^−15 M^2
- dissociation constant ([1]; pH 8.0, not stated (pH series 6.0, 7.0, 8.0, 9.0; buffer substances not named)): ≤10^−14 M^2
- dissociation constant ([1]; pH 9.0, not stated (pH series 6.0, 7.0, 8.0, 9.0; buffer substances not named)): ≤10^−12 M^2

Substance: IC2B^1–158-TcTex1-LC8 complex (from UniProt Q9Z336 1-113; P63170 1-89)
- change in elution volume of the IC complex [2]: 2.22 mL
- change in elution volume of the IC complex [3]: 1.26 mL

Substance: dynactin p150^Glued coiled-coil 1 (CC1) (from UniProt P28023 204-530) (domain or fragment)
- Kd [4]: < 0.001 µM
- stoichiometry N [4]: 2

Substance: dynein intermediate chain (from UniProt Q24246)
- Kd [5]: 3.5 µM

- overall dissociation constant, p150 dimer + 2 IC [14]: > 1e-10 M^2
- overall dissociation constant on the scale of Figure S4B (scale not told, presumably -log10) [15]: 12
- stoichiometry N (IC per CC1B dimer) [15]: 2
Substance: dynein intermediate chain isoform 2C, residues 1–124 (domain or fragment)
- overall dissociation constant, p150 dimer + 2 IC [6]: < 1e-13 M^2
- overall dissociation constant, p150 dimer + 2 IC [7]: < 1e-14 M^2
- overall dissociation constant, p150 dimer + 2 IC [8]: < 1e-12 M^2
- overall dissociation constant, p150 dimer + 2 IC [9]: > 1e-15 M^2
- overall dissociation constant, p150 dimer + 2 IC [10]: 1e-12 M^2
- overall dissociation constant, p150 dimer + 2 IC [11]: 1e-10 M^2
- overall dissociation constant, p150 dimer + 2 IC [12]: 1e-08 M^2
- overall dissociation constant, p150 dimer + 2 IC [13]: < 1e-15 M^2
- stoichiometry N (IC per CC1 dimer) [13]: 2
